Laboratory results published in patent US20220305006.

Experiments:
Peptide 65005 = target: T1, Peptide 65005
T1 chain: NLTTYPYFIPL

Peptide 65007 = target: T2, Peptide 65007
T2 chain: ALYPYFLPISAK

[1] = target: BACE inhibitor 1 (statine BACE inhibitor 1)
[2] = target: recombinant sAPPα, human, amino acids 19-613, P05067
Sequence of recombinant sAPPα, human, amino acids 19-613, P05067 (P05067 19-613): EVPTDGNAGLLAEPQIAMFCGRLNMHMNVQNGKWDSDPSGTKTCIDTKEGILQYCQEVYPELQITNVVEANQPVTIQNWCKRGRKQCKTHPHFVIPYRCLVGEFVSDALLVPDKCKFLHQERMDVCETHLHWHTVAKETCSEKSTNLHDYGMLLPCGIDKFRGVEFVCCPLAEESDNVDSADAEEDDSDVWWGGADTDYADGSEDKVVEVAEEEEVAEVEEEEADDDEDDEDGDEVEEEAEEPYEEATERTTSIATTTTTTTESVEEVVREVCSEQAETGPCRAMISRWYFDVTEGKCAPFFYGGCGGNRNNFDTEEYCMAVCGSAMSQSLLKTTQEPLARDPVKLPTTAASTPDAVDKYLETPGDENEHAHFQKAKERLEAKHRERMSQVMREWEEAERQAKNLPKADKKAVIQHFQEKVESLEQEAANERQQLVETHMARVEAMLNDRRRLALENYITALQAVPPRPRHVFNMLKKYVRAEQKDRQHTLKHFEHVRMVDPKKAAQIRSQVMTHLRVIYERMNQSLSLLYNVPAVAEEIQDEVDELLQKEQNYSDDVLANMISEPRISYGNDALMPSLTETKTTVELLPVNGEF

B1: BACE in mouse primary cortical neurons (protein)
chain: ETDEESEEPGRRGSFVEMVDNLRGKSGQGYYVEMTVGSPPQTLNILVDTGSSNFAVGAAPHPFLHRYYQRQLSSTYRDLRKGVYVPYTQGKWEGELGTDLVSIPHGPNVTVRANIAAITESDKFFINGSNWEGILGLAYAEIARPDDSLEPFFDSLVKQTHIPNIFSLQLCGAGFPLNQTEALASVGGSMIIGGIDHSLYTGSLWYTPIRREWYYEVIIVRVEINGQDLKMDCKEYNYDKSIVDSGTTNLRLPKKVFEAAVKSIKAASSTEKFPDGFWLGEQLVCWQAGTTPWNIFPVISLYLMGEVTNQSFRITILPQQYLRPVEDVATSQDDCYKFAVSQSSTGTVMGAVIMEGFYVVFDRARKRIGFAVSACHVHDEFRTAAVEGPFVTADMEDCGYNIPQTDESTLMTIAYVMAAICALFMLPLCLMVCQWRCLRCLRHQHDDFADDISLLK
CHL1 and L1CAM cleavage (uncleaved substrate/α-tubulin OD ratio, immunoblot), 10 µM, 24 hours (Peptide 65005): only BACE Inh 4 (blue) clearly inhibited cleavage; BACE Inh 1, peptides 65005 and 65007 and sAPPα did not | uncleaved NrCAM and neurofascin (immunoblot), 10 µM, 24 hours (Peptide 65005): none of the other inhibitors increased the amount of uncleaved NrCAM or neurofascin substrate | CHL1 and L1CAM cleavage (uncleaved substrate/α-tubulin OD ratio, immunoblot), 10 µM, 24 hours (Peptide 65007): only BACE Inh 4 (blue) clearly inhibited cleavage; BACE Inh 1, peptides 65005 and 65007 and sAPPα did not | uncleaved NrCAM and neurofascin (immunoblot), 10 µM, 24 hours (Peptide 65007): none of the other inhibitors increased the amount of uncleaved NrCAM or neurofascin substrate | CHL1 and L1CAM cleavage (uncleaved substrate/α-tubulin OD ratio, immunoblot), 10 µM, 24 hours [1]: only BACE Inh 4 (blue) clearly inhibited cleavage; BACE Inh 1, peptides 65005 and 65007 and sAPPα did not | uncleaved neurofascin (immunoblot), 10 µM, 24 hours [1]: Only BACE Inh 4 and BACE Inh 1 treatment resulted in an increase of uncleaved NrCAM or neurofascin, respectively | CHL1 and L1CAM cleavage (uncleaved substrate/α-tubulin OD ratio, immunoblot), 1 µM, 24 hours [2]: only BACE Inh 4 (blue) clearly inhibited cleavage; BACE Inh 1, peptides 65005 and 65007 and sAPPα did not | uncleaved NrCAM and neurofascin (immunoblot), 1 µM, 24 hours [2]: none of the other inhibitors increased the amount of uncleaved NrCAM or neurofascin substrate
